From the NTF2 design screens of Basanta et al. (2020)

Assay: protease stability score; higher = more stable; yeast display proteolysis, trypsin and chymotrypsin;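 also: relative to predicted unfolded state with 0 unfolded-like and 1 meaning tenfold more protease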

Sequence	protease stability score
DEEEENMRIAFKLLIEMHRTGDPEEHLELFDPHVRSIIGDKEYHGWEEYMRWIQHARVKELKLDSHRVYNGRVELDVRINVDVNGREIDREVHIIAEKVNGRWHFKSVRVL	1.41
DEEEENSRRAIEIVLQHMETGDEKTLEELVDPHVKLHYGDKTSHGRHHVAHLIMRLGVKHSRVEHVDSQGDKVFFFTRMRIGDKHFDTRVILLKVDGKWQIHELKFD	1.96
DEEEEQAHTMLEIFLHNLVTGNEETINTLMDPHARTDIDGKIFHGRDWLEHFLRRFPHVRLHLKHIEWRVINGVAHLHLEMHVNVDGRHFDVRFHIHNEKINGRWFSHSFKYSIE	1.44
DEEEEQARDLTKLLEKLWATGDEHTLLRLLDPNARNIVGDKEHHGREILLKFWRHLGVSRVESKIEDVKVFDGRVYIKGRVRFDGVELETEIESEKVNGQWHIRIIRMR	1.79
DEEEEQARHMVMLFLRYILTGDEKHFQTLADPDVRTDVNGKEHHGREEATRTLRLYIELMGADHIQLKDWEIEVQGEFVRLRLHVQVDVGDKHLRTDLHFEIKKVNGQWVVHQVVIKTL	2.19
DEEEEQTHHMFKRILEVLRTGDERMLLDLADPHVRLEVGDKHMIGMDSLVHFNARIKNMRIRLRSIDFQGDYAHINTELEFDGRNHHITIVVLKVDGKWIIRSQHVK	1.46
DEEEERARHWIERFVRAVLTGDWEHILRNADPNVRLHVGDKEIHGRERMIETFREFWERYPGVRIKIHQVEIQGEKSHLDGEIRFDGRRFRVEFEVVIINGKIHELHIRIH	2.62
DEEEERARRDLFIWAHAVKTGDEKRYKELFDPNDKLDINGQEIHGMESVVKLIRHIRIEDIHLHLHDIRLIGDKLHVDGQIRQHTHVGDKRVHDTINVNDIVHKVNGQWHWKSIIYH	1.03
DEEEEREKELRERWEHFLKTGDWKKIEELADPHVRLDVGDKELVGRELFVEFIRRLLEHLGFNVFRINHIDLQGEKINMDVEREIGDKSTRVELHILKIDGQWILKRVIIN	1.82
DEEEERFEEVWRRLARALETGDEETVRHLIDPNVLIIIGDKTIHGWESLSTYLKEIRLTISDMRVRSRSEVNGKLEFDTHTHRVVFINGVELHVEERIHITMLKIDGRWHIHSIEFR	1.45
DEEEERLEELSKLLLEMVLTGNWDETLELADPHALIEIGDKRFHGWEHWVKLYLRIKNVRFELRIDSVRPIGDKAEIDGHVIIRIGDKEKEFDLRVEIDVVDGRLKENSIRRR	1.35
DEEEERLEKLAEILIHYHLTGDFEILLEYADPNVQTEFDGVEIHGMELSNKFLEKSNKKLGVDHRHYKSYSAYGNKVTVLSEIHVNGRKMEVRFRWDVVNGKIQTLHIHFD	1.05
DEEEERMDRAYDHWRENILTGDWKRLRELADPHAKMDINGVDIHGMETFNKILSEELKEIRLKDVHIDDKHVVDGQLHVHGKRETLFNGKNTWIKTHIHLVIIDGRFHSYTVHIE	0.281
DEEEERMQEKLHRYLHDLVTGDEEEFHKYADPHVKTRVGDKILHGREKAREFWHEIRIKDIKLDHKDIQGDFVRLHVRVHGRINGQDIDFRVEIFFRKINGRWIIESQEIN	0.816
DEEEERRRHLIDVLLRLWHTGDEESFTNLADPHVRIHVGDKIFHGREAASRWMHNVREHWRLHHERDHDVKIQGEKVVRDGHVDIEFNGVRVRTRVEIILTVVNGQIKLIEIRIL	1.26
DEEEERTERVSQLFWELFLTGDEEELFKLVDPHVRSHVGDKDYHGRETAHEIWHRIKNVRMRLDHVELRIVNGRADLHVRGKLIIGDKKVELNIEILVVKVNGQWLVERIRVETK	1.31
DEEEERTKHHFELLFKLWTTGDEDSLSHLADPNVRVHVDGKDFHGWEDMKDFMREWIERFKNVRLELKHFEAQGDKASSEIKIHYGDKHVTEFIEIILFNGRLHEIRRLFKRD	1.01
DEEEERVIHIMHLFLEHISTGDEDKVKHLMDPNVRVFIGNKQHVGMHEIIKHLREWRIELDDVRTEEVRIQGDKLHLNGRLHVTLEFNGRRIRTTVRTTNIFRKVDGRWILEAIHID	1.58
DEEEERVRNFVERLSKAVRTGDEEEMRDLFDPDVKSRQGDKDVIGRELVAEWLSKFFLRRGIEVHFELKRFEFQGDYLHLRLHVEVRIDGKDHTLTMYVLLIKVDGRWILHSIHRE	1.54
DEEEERVRRIMKEFIESLLTGDFRILTELMDPNARLHVDGVELHGRETMRKFWKDRERELGVENFDAKQRDVRLINGKAHNDGELLINGQVTKWILRVEKVDGRWRLHHIELH	0.231
DEEEESNRHLAEKFEEHHRTGDWRMMSKMFDPHVRVERIFNGRTVIIHGWEKYVKTVKDEFERIKGARLIIDDMKVQGEKSRVEGTLKINGRTVEVDIHLDIVDGRLRHVRIEIE	0.201
DEEEESSHNALKYWMHSLITGDEHTIERLADPHVLMVVNGKTFHGMERFHEALHEFNERIDHIERIEIKDMKIFDGRVIVELKVHGRIGDKRHELETYLVILKYDGKWHLHSISVK	0.964
DEEEESTKRVAKVLHHTNRTGDEKTMNEMLDPNAKQDYNGRINIGWERILEVLREWKDRLGLTRIELHIHDFDIQGDKARIDTTVDFNGVEFKLIIYVRKIDGKWVLERIEVR	0.368
DEEEESYRIAEHLFREVMETGDERISEHLADPRTRFQVGDKTFHGMDEWREVLHRMLVEIRMHDVKVHDVKSIGDKLIIDGYLYIEINGRRTSIYTELYWLKVNGQWRLHYITMH	1.12
DEEEETARRLTEELIRSQKTGDWEFLLRLMDPHAKSDINGVHVVGMEETVRILEKLLRDLGVTKVEALLHRVHFIDGRVHVDSEERYGDKWFRVHFTVQKINGKWVIRSIEVR	1.4

Sequence	protease stability score
DEEEETEKKWADIFTKAWITGDEETLERLMDPNVKYHQEVGDKHWSAHGREEVSRHIHELLKHLGVKVVELRRIHVINGVVHVDGKTIVNGREFTVHIHYRIVDGRVREIRFEFR	2.22
DEEEETIRKYIEMMIRLWETGDEKSMLDLFDPDVRTLVNGQHLHGRHALEILLRRIDVRRHVHLHHIDLQGNKVEIDSRLEGTVDGKRDDIELTHHMVKVDGQWVIHNVEVR	1.02
DEEEETIRRDAKLTLDLIRTGDEEHLKKMLDPHVRLQIVIGDKTIENHGREEVIRRLRHEWKRFKNMRILIEDKRVVGNWVHFFGTILYNGVEHEAVLDLVLIDGVLHSIRINVI	1.6
DEEEETLREMLRMSKEALETGDETELHELFDPNVRVVVDGVTLHGWEAWSQFLREIRLSIREVRIKRVDRVDGKIIIDGKFHRIIIQGDKTRENTIDAEVLIRKVDGKWVYEHDSYL	0.823
DEEEETLRWVKELLKHLSKTGDFEKIVNYMDPDVRLNVDGVELVGMHHLERLAKEIRFKIHDLHPRRERIFDGKIQMDVEIDRIIHYGDKTTRERTTIIIIFEKVNGRWLIHTIHVH	1.17
DEEEETMERALRETLHFINTGDEDSMEELMDPNWRIHIDGKDLHGWKFFQHLLRRADHIHIHIELKDVRRVGDKLELDGRLHVIYFIDGQEIHKVVDTHIYMIKINGRWHHKFIEIK	2.15
DEEEETMRNIIMDWFRAMFTGDEERVNELLDPNARIEVGDKEWHGRDEFRKVLEHIRIHTRQIRIRRIDFFENRVHMDVQLDRELRFDGKTERIDVKLELFLVKIDGRWRFKETSVH	2.57
DEEEEVLKTYLKLLIDALRTGDEHTMTRLIDPHARTHQGDKEIHGRKSMEELNKRYPNVRVDIRHISEVGDKITIDAVLHVGDKRYEIVIIAWKVNGRWEHTEFEFR	0.808
DEEEEWARYILKKTMEAWLTGDEEIIRELLDPSTRLVIDGKEFHGMDEAQFLVREIRIDRIRTDMHDVKFQGDWIHVDGHIRVDETVNGRRRHKENRINIIVLKIDGRWYLHRYIIG	2.35
DEEEEWATEAWKLHLHHHRTGDERMIHELLDPNMRLDFDGVELHGRKLVKEFIERTLRRFDVIDEYDHSDVRIQGDKVDLIQVVRGEIDGRRTHVNQRLIMIKIDGRWVVKHVRLQ	1.23
DEEEEWLREVLRLIIEFLKTGDEDRLNEMADPTTRLRVGEFHHVGREEVHKFRKKKKDELGVDKIEFRLEDVRIQGDKATADGRVQYNGQEYKMRVIVVVVNGKVKSLTEEWE	1.07
DEEEEWVRHLAHLFFEWYLTGDWQRFSELMDPTTLSVYGDKHFHGMELVVEFLSRSLDEMRIEHVEFKDIRVYNGVAHVHLRFEGKIGDKRTETDSRLLLYVVDGRIKHVKFIIK	1.39
DEEEEYAHRFVEDFIDAWLTGDEDRLEELMDPNVKIVVGDKVLVGRHLVIRLMHEWIRKYKGIKFVFHVKHLEAINGRLEIESEVDLRINGRKIKHTSKMVVRKIDGKWEIREFHLN	2.38
DEEEEYAIEFVILHIEALKTGDERKLEHLMDPHYKLDYNGRKVHGREQWLRFLNEWRVHIHDIKVDDHDVVNGRVILHVTIHGTVIFDGRNIRTHHEQEYVLHKVNGRWHFHSMIVR	1.5
DEEEEYHRRVLETITRARLTGDEDLFRKNVDPDVKIEVHVGNFRFHDVGWEHLRRWIEELGFEIHHIEIKHEHVINGVMHQESERDGTFNGVRDRVKVRFIYFIVNGRIKHIRFEVE	0.781
DEEEEYLHKRAREFFRSFLTGDWHFLMHLLDPNVRWEVIIGNKRIERHGREELFKDLLRWLEEIRIKRMHVEEIHVFDGQLFMRVSAHGEFNGKERDTHEELVVVVVNGRFKSARIHVH	1.65
DEEEEYYRRAVEIHERVLRTGDWRQLRELMDPRTKIDVGDKSFHGRDTITHWTKEMLEKFGVTKVEFHFDHLEMQGDKANIRGTLQINGQPIDISIHSVKIDGRWLIKFVKID	0.822
DEEEEYYRVAIEIWLRVMMTGDPKYFDRLADPHVRVEQGDKRLHGMEDWSKRLEHMRIDHINIHQFKVVNGKIHVDTEVRGDVDGVEFRTRMELIFEKVDGRWILRRIHIN	2.71
DEEEHALWHWFQEHVHALETGDEDTLRELADPNVRLDINGKRIHGRHQLEHLIHRIDHMRIDDYKIDHVDRQGEKVIIDGTFHGKIIQGDKTIHMHTRVIIILLKVDGQWRLKSEQID	1.12
DEEEHDARELARIVIEQFLTGNEDMLREFMDPNTRLHVNGVHRHGRESMVIMLRQLRTKRVHIKSIRIIGEKVDVDGILNGEVNGVEDNHQVHFHLIKVDGQWYIHHVIIR	1.39
DEEEHDLRLAVELWHRLLETGDERVEKHLIDPHVRVHFNGRDLHGREAATWTLRTMGVKVFELKRIETFNGQVNIHQHVNVDGQHYDLIIHARKIDGRWVNESMRIH	0.667
DEEEHDVEVAFREYVKSTKTGDEDTLRHLADPHVKIWVDGRDFHGREVYYRLEKKIMEEWRFHDMHVEHVLVQGNKMTLHTRIDGEFDGKKVNLEVIIISVKVDGQWMIHSLEHR	2.22
DEEEHEAKRADEVYQHVMETGDERLLNEYFDPHYRLEQGDYELVGREEASRFLIEWMKHWRTEYRLDNYHVIGNKIRLEGELHIRYGNFTRSHRIVTYVLKVDGQWRIKKTEIR	1.64
DEEEHEEKRLLEMHLHYLATGDEENLKKLLDPNVKLVVNGREIHGRERIIEFIRRLIEMWGVDRIDSRIRHVTSQGDKIRLEGEWIVGEKVIDTRLLAVKVDGRWVEETLILK	2.13
DEEEHEIRQAIELEIRLIETGDFKAMRKMADPHVRTHINIGDKRLDLHGRDFFEWWLRFVKGVTHRFEDFVSVGNKVHIIVQDQVGDKRYEVKIVFKKVDGRWRMTESEVHFE	1.83
